± gives the uncertainty stated by the source.
Assay: protein stability index of a GFP-peptide fusion (yeast GPS) (PSI 1-4); higher = more stable; sorted into four equal gates, so the index is relative within each strain
Summary of the method: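 Plasmids in a pooled yeast library fused tiled 17-residue yeast protein peptides downstream of GFP and also expressed Cherry. Mid-log cultures grown without leucine were sorted into four equal gates by GFP/Cherry fluorescence ratio. Each gate's plasmids were PCR-amplified and Illumina-sequenced, and reads were matched to strains by barcodes. The protein stability index is derived by multiplying each gate's read frequency by its gate number and summing the results.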

Sequence	protein stability index (pdr5∆)	protein stability index (san1∆)	protein stability index (ubr1∆)	protein stability index (doa10∆)
KNLVKVLESRVNARDIP [CSN12]	1.94 ± 0.19	2.03 ± 0.2	1.76 ± 0.16	
GNIFADLLPNSFAKLVP [SMC2]	2.86 ± 0.04	2.58 ± 0.05	2.62 ± 0.043	2.36 ± 0.045
ILEDTATMSVFLQRIDF [RRI2]	2.53 ± 0.05	2.76 ± 0.056	2.59 ± 0.042	2.78 ± 0.059
KKVVKKAFEERHQAGKN [RPL27A]	3.83 ± 0.22			
QIDQLNRLLPNLPEEER [GRR1]	2.12 ± 0.064	2.05 ± 0.098	2.51 ± 0.083	2.62 ± 0.091
VFPSSILDITDEELVSH [RPP0]	2.94 ± 0.1	3.26 ± 0.068	2.99 ± 0.065	2.89 ± 0.067
SEPIKEIIDNWEKYEQS [FAS1]	3.22 ± 0.07	3.23 ± 0.048	2.96 ± 0.059	2.88 ± 0.097
LLDRILPKLKATGHRVL [SNF2]	2.54 ± 0.08	2.3 ± 0.08	2.63 ± 0.088	2.57 ± 0.1
VKKVQLGKKGVPYVVTH [RPS4A]	2.07 ± 0.13	3.06 ± 0.064	2.04 ± 0.071	1.77 ± 0.098
VTKDTKKYSSKNKYGEI [SRP68]	2.66 ± 0.099	2.52 ± 0.086	2.77 ± 0.068	2.82 ± 0.11
PSKKRRRDFGAPANKRP [SMD1]	3.02 ± 0.1	3.16 ± 0.12	3.04 ± 0.09	2.57 ± 0.19
SIDCLLILILVISFGQP [SWI1]	1.64 ± 0.034	1.52 ± 0.071	1.59 ± 0.029	1.85 ± 0.043
LETDGVNLSEVMTVPGI [RPO21]	3.36 ± 0.21	3.03 ± 0.13	3.34 ± 0.14	2.75 ± 0.19
GLLDLERVIVVTGFAEV [FAS2]	2.32 ± 0.095	2.21 ± 0.17	2.16 ± 0.11	2.9 ± 0.17
ITIDSVVDANGCVNSLI [YMR129W/POM152]	2.91 ± 0.09	3.05 ± 0.055	2.8 ± 0.06	3.01 ± 0.11
TEYRGTLVSTDNYFNLQ [SMX3]	2.65 ± 0.046	2.4 ± 0.059	2.23 ± 0.041	1.83 ± 0.038
SNTTTQIQFTPLIKKIK [SMC3]	2.46 ± 0.045	2.71 ± 0.095	2.37 ± 0.07	2.2 ± 0.088
EFDSDDDDISDDEEDEI [RPN4]	3.28 ± 0.09	3.14 ± 0.082	3.31 ± 0.098	3.47 ± 0.1
GMVKLNEYPVADAVTKD [REC8]	2.87 ± 0.2	3.28 ± 0.043	3.36 ± 0.052	
LGRTGSRGGVTQVRVEF [RPS28A]	3.19 ± 0.053	3.31 ± 0.047	3.19 ± 0.044	3.29 ± 0.053
TALEHKVVNGNSADAAY [FAS2]	3.09 ± 0.088	3.05 ± 0.063	3.13 ± 0.06	2.84 ± 0.08
IVSKEYEKNFEATLESK [ESC2]	3.08 ± 0.17	2.9 ± 0.088	2.88 ± 0.18	2.98 ± 0.24
EEAAEESDDDMGFGLFD [RPP1B]	2.87 ± 0.073	3.371 ± 0.029	3.23 ± 0.037	3.14 ± 0.059
DNHSGDATANATANATA [DSN1]	3.08 ± 0.064	3.32 ± 0.089	3.13 ± 0.071	3.22 ± 0.12
QGKHTKFENDELAESTT [LRP1]	2.88 ± 0.12	3.12 ± 0.079	3.21 ± 0.077	3.75 ± 0.23
SKKQRNNGSKDHGDGIL [RPN9]	2.85 ± 0.097	3.27 ± 0.057	2.78 ± 0.053	3.37 ± 0.13

Sequence	protein stability index (pdr5∆)	protein stability index (san1∆)	protein stability index (ubr1∆)	protein stability index (doa10∆)
NPLIELTPIQKKIMDET [ITC1]	3.08 ± 0.08	3.24 ± 0.057	3.07 ± 0.076	2.67 ± 0.087
FQVHERLAPLIKEENDM [ARP7]	3.58 ± 0.17	2.97 ± 0.15	3.22 ± 0.28	
LYNVMGINKKKLLAISK [RPC31]	2.3 ± 0.16	3.67 ± 0.095	3.5 ± 0.26	2.83 ± 0.26
TTDANGSKENYQELGSL [MED2]	3.09 ± 0.081	3.15 ± 0.049	2.9 ± 0.075	2.86 ± 0.097
SIWGNGYSGYGNGITNT [SNF5]	3.4 ± 0.12	3.35 ± 0.084	3.34 ± 0.051	3.26 ± 0.1
NIYNFSPSERIEPLEIN [BRR2]	2.78 ± 0.051	1.93 ± 0.056	2.2 ± 0.05	2.39 ± 0.064
DEDKNFPRSRSRSRSSI [ESC2]	3.25 ± 0.14	3.12 ± 0.14	3.27 ± 0.07	3.13 ± 0.15
EKSLLPKIETNVYVGMT [ISW2]	2.97 ± 0.11	3.07 ± 0.098	3.2 ± 0.1	2.92 ± 0.13
EIGLLGGRYVYPVHEAH [SNU114]	2.55 ± 0.091	2.79 ± 0.077	2.03 ± 0.084	1.85 ± 0.064
SIREDILECDLLICIGT [SIR2]	2.15 ± 0.058	2.78 ± 0.055	2.39 ± 0.052	2.45 ± 0.058
LLRSVLVLLELVSSGDR [YML103C/NUP188]	2.03 ± 0.12		2.28 ± 0.15	1.84 ± 0.23
IPSPLSSTKPPGSVNSA [NUT1]	2.84 ± 0.058	2.86 ± 0.076	2.85 ± 0.044	2.76 ± 0.056
VKGDLLQEAIDFAQKEI [PRE10]	2.84 ± 0.066	3.2 ± 0.054	2.9 ± 0.048	2.9 ± 0.076
KWAGIKTRKFVFNPPKP [CYT1]	2.98 ± 0.24	3.05 ± 0.17	2.95 ± 0.15	3.04 ± 0.16
KVNPNIMNMIENVEKKE [SMC2]	2.71 ± 0.12	2.36 ± 0.13	2.5 ± 0.064	2.46 ± 0.13
KKQAQKQTKLRKEKEKK [SMB1]		2.46 ± 0.3		3.04 ± 0.27
ICYNKKTEYVLNDLNHL [REC8]	1.75 ± 0.091	1.68 ± 0.21	1.88 ± 0.19	1.8 ± 0.19
VCAKLFGNIQKVVNFWL [RPO21]	1.93 ± 0.07	1.95 ± 0.11	1.78 ± 0.074	2.03 ± 0.098
PDVLLSRVINVVRAASS [RRP6]	1.57 ± 0.066	1.44 ± 0.12	2.17 ± 0.13	1.26 ± 0.081
EAAKLLVDSLATFTSIE [RPN7]	3.1 ± 0.098	3.24 ± 0.096	2.68 ± 0.096	3.24 ± 0.18
QQQQQQQQQQQHIYPSS [GAL11]	2.78 ± 0.02	2.693 ± 0.017	2.811 ± 0.018	2.691 ± 0.02
ADVTHFVKPGTALDAEG [DIS3]	3.33 ± 0.2	3.04 ± 0.076	3.08 ± 0.081	2.9 ± 0.094
NTNNINNSSSGMNNASA [YGL172W/NUP49]	3.17 ± 0.079	3.25 ± 0.056	3.22 ± 0.094	3.33 ± 0.11
VQEQLSKNRIIVEADEK [RET1]	1.37 ± 0.052	1.65 ± 0.14	1.4 ± 0.062	1.52 ± 0.088
DHGDGILLIDSEIARTY [RPN9]	3.03 ± 0.3	3.29 ± 0.17	3.17 ± 0.24	2.73 ± 0.22

From the supplement of paper PMC9732359
